B1: Table S2 A row 489 (dsDNA)
DNA 1: TCTAAATCACTTCCTGTTACAGAAACCACAGGCCTG
DNA 2: CAGGCCTGTGGTTTCTGTAACAGGAAGTGATTTAGA
B2: Table S2 A row 332 (dsDNA)
DNA 1: AACAGGAAGTGGTCTTAGAGATCATGCGGTTCAGAG
DNA 2: CTCTGAACCGCATGATCTCTAAGACCACTTCCTGTT
B3: Table S2 A row 658 (dsDNA)
DNA 1: AGCTAGGACAGGATGTGAAAACCACACTGACAAAGT
DNA 2: ACTTTGTCAGTGTGGTTTTCACATCCTGTCCTAGCT
B4: Table S2 A row 1174 (dsDNA)
DNA 1: CCTGCGGATCACGGAAGTGGCTGCGGTCGGCGCCAT
DNA 2: ATGGCGCCGACCGCAGCCACTTCCGTGATCCGCAGG
B5: Table S2 A row 1364 (dsDNA)
DNA 1: CTCAGGGTACCAGGATGTGGTTTAGCTTAGGGGTGG
DNA 2: CCACCCCTAAGCTAAACCACATCCTGGTACCCTGAG
B6: Table S2 A row 1548 (dsDNA)
DNA 1: TGCAGTCGTGAAAAAGGAAGTGGTTAAAGTGGCTAC
DNA 2: GTAGCCACTTTAACCACTTCCTTTTTCACGACTGCA
B7: Table S2 A row 647 (dsDNA)
DNA 1: CCCAGCCCTGCTGCCGGATGTGGTGAGGCCCAGGTG
DNA 2: CACCTGGGCCTCACCACATCCGGCAGCAGGGCTGGG
B8: Table S2 A row 568 (dsDNA)
DNA 1: GTGGGGCAGGATGTGCTTGCCTGGCTGCGGTTGGAC
DNA 2: GTCCAACCGCAGCCAGGCAAGCACATCCTGCCCCAC
B9: Table S2 A row 456 (dsDNA)
DNA 1: AACAGGCAAAGGACAGGATGTGGTGAGCGTCGGCCC
DNA 2: GGGCCGACGCTCACCACATCCTGTCCTTTGCCTGTT
B10: Table S2 A row 911 (dsDNA)
DNA 1: TTACACAACAGGAAACTATGTTTAGCGGTTAATCCA
DNA 2: TGGATTAACCGCTAAACATAGTTTCCTGTTGTGTAA
B11: Table S2 A row 99 (dsDNA)
DNA 1: CTTAGCACTTCAGCCGGAAACCACAGCATACATTTC
DNA 2: GAAATGTATGCTGTGGTTTCCGGCTGAAGTGCTAAG
B12: Table S2 A row 550 (dsDNA)
DNA 1: AGCAGGTATACCACTTCCTGTGGTTATCATTTGAGG
DNA 2: CCTCAAATGATAACCACAGGAAGTGGTATACCTGCT
B13: Table S2 A row 1302 (dsDNA)
DNA 1: AACAGACAGGATGTGGCCTCTGCCAAAACCACCATC
DNA 2: GATGGTGGTTTTGGCAGAGGCCACATCCTGTCTGTT
B14: Table S2 A row 895 (dsDNA)
DNA 1: TCAAGTTTGGTAACAGGATGTGGTAGGAGGAACACA
DNA 2: TGTGTTCCTCCTACCACATCCTGTTACCAAACTTGA
B15: Table S2 A row 288 (dsDNA)
DNA 1: CATAGACCGGATGCCTCGTCAACCACAGAAACCAAT
DNA 2: ATTGGTTTCTGTGGTTGACGAGGCATCCGGTCTATG
B16: Table S2 A row 1188 (dsDNA)
DNA 1: CCCACTGCGCCAGGATGTGGTCAGGTCGGTGACGTT
DNA 2: AACGTCACCGACCTGACCACATCCTGGCGCAGTGGG
B17: Table S2 A row 462 (dsDNA)
DNA 1: TTCAACAGGATGTGGGAACTTGACTCTCGCCGCAAA
DNA 2: TTTGCGGCGAGAGTCAAGTTCCCACATCCTGTTGAA
B18: Table S2 A row 1115 (dsDNA)
DNA 1: TCAATGACAGGAAGTTTTTAAACCACATACGGCTAA
DNA 2: TTAGCCGTATGTGGTTTAAAAACTTCCTGTCATTGA
B19: Table S2 A row 1404 (dsDNA)
DNA 1: ATAGACTCAGGAAGTGATTGTGGTAAGATTCTATAT
DNA 2: ATATAGAATCTTACCACAATCACTTCCTGAGTCTAT
B20: Table S2 A row 702 (dsDNA)
DNA 1: CACCTCCTCTCCGGATGCGGTTTGTTCTGCTTGTAG
DNA 2: CTACAAGCAGAACAAACCGCATCCGGAGAGGAGGTG
B21: Table S2 A row 309 (dsDNA)
DNA 1: CTTAGAGTACCAGGATGTGGTTTGGCCTGGGGGTGG
DNA 2: CCACCCCCAGGCCAAACCACATCCTGGTACTCTAAG
B22: Table S2 A row 524 (dsDNA)
DNA 1: TATCTCCTATCTCCAGGAAGTGGTTAGCCCTAGGAG
DNA 2: CTCCTAGGGCTAACCACTTCCTGGAGATAGGAGATA
B23: Table S2 A row 513 (dsDNA)
DNA 1: AGGACGGGCGGAAGTGGCTGCGGTGGATGGTGGGAG
DNA 2: CTCCCACCATCCACCGCAGCCACTTCCGCCCGTCCT
B24: Table S2 A row 1376 (dsDNA)
DNA 1: CTCTGGCAGGAAGCTCTGAGGGCTAAACCACAAAAA
DNA 2: TTTTTGTGGTTTAGCCCTCAGAGCTTCCTGCCAGAG
B25: Table S2 A row 990 (dsDNA)
DNA 1: TCCTAAAGCAGGAAATAGTGAGGCTACCGCAGTGTC
DNA 2: GACACTGCGGTAGCCTCACTATTTCCTGCTTTAGGA
B26: Table S2 A row 1234 (dsDNA)
DNA 1: GCTGGTATGGCAGGAAGTTTCTCACCACAGTATACT
DNA 2: AGTATACTGTGGTGAGAAACTTCCTGCCATACCAGC
B27: Table S2 A row 721 (dsDNA)
DNA 1: AGTGCAGAGTGGACAGGATGTGGTGGAGGTGAGAGA
DNA 2: TCTCTCACCTCCACCACATCCTGTCCACTCTGCACT
B28: Table S2 A row 271 (dsDNA)
DNA 1: CACCCCCCCAGTGCAGGAAGTGGTTTTCGAGGGCAG
DNA 2: CTGCCCTCGAAAACCACTTCCTGCACTGGGGGGGTG
B29: Table S2 A row 517 (dsDNA)
DNA 1: GTTAGCGTGATCGGAGGATGTGGTTTTCCTCCCTCT
DNA 2: AGAGGGAGGAAAACCACATCCTCCGATCACGCTAAC
B30: Table S2 A row 1449 (dsDNA)
DNA 1: GGGTTGGGTGCCGGATGCGGTGAGTGAGGTTCTCAT
DNA 2: ATGAGAACCTCACTCACCGCATCCGGCACCCAACCC
B31: Table S2 A row 1496 (dsDNA)
DNA 1: GCACTGTAGGCAGGATGTGGGCAGGGGAAACTCAGG
DNA 2: CCTGAGTTTCCCCTGCCCACATCCTGCCTACAGTGC
B32: Table S2 A row 1263 (dsDNA)
DNA 1: TCACATTTTGCCGGATGTGGGTTGAGGGCATGCTGC
DNA 2: GCAGCATGCCCTCAACCCACATCCGGCAAAATGTGA

Target: ETS1:RUNX1 (Homo sapiens, UniProt P14921;Q01196 full;full)
Assay: gcPBM; 1 nM ETS1 + 25 nM RUNX1, anti-ETS1 signal, normalised
Settings: tags: N-terminal GST (pDEST15), kept (PMC6008103); copies: 1;1; label: surface-attached array probe

Sequence of ETS1:RUNX1 (P14921 whole entry, chain 1 of 2): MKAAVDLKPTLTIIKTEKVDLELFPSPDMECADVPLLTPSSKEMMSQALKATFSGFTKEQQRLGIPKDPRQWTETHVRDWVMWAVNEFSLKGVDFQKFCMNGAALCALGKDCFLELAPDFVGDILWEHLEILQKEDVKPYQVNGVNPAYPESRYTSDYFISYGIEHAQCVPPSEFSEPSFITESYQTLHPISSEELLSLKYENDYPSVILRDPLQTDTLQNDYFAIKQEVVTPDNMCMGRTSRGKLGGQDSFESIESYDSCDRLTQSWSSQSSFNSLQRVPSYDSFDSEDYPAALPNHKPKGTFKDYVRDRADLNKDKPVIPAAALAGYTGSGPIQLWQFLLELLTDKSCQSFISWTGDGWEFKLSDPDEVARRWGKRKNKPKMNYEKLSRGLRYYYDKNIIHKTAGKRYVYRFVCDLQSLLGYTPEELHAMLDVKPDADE
Sequence of ETS1:RUNX1 (Q01196 whole entry, chain 2 of 2): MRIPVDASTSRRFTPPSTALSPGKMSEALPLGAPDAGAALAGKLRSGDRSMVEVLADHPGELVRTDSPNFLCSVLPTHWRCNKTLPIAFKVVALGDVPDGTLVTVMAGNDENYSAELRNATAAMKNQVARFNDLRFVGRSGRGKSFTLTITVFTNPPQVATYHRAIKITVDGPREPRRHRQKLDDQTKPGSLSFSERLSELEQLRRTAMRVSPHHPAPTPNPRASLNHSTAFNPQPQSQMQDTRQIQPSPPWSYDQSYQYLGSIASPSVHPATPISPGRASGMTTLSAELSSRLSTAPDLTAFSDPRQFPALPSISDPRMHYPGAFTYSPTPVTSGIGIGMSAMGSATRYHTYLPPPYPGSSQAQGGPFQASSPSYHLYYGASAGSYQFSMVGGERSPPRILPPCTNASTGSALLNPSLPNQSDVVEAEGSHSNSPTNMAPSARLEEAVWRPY

Row | Binder | binding signal
1 | B1 | 13000 PBM fluorescence, median of replicate spots
2 | B2 | 10100 PBM fluorescence, median of replicate spots
3 | B3 | 11800 PBM fluorescence, median of replicate spots
4 | B4 | 11700 PBM fluorescence, median of replicate spots
5 | B5 | 9440 PBM fluorescence, median of replicate spots
6 | B6 | 12100 PBM fluorescence, median of replicate spots
7 | B7 | 13200 PBM fluorescence, median of replicate spots
8 | B8 | 11400 PBM fluorescence, median of replicate spots
9 | B9 | 10800 PBM fluorescence, median of replicate spots
10 | B10 | 9030 PBM fluorescence, median of replicate spots
11 | B11 | 10100 PBM fluorescence, median of replicate spots
12 | B12 | 8000 PBM fluorescence, median of replicate spots
13 | B13 | 12700 PBM fluorescence, median of replicate spots
14 | B14 | 13400 PBM fluorescence, median of replicate spots
15 | B15 | 11200 PBM fluorescence, median of replicate spots
16 | B16 | 9170 PBM fluorescence, median of replicate spots

Row | Binder | binding signal
17 | B17 | 13800 PBM fluorescence, median of replicate spots
18 | B18 | 9230 PBM fluorescence, median of replicate spots
19 | B19 | 8880 PBM fluorescence, median of replicate spots
20 | B20 | 12500 PBM fluorescence, median of replicate spots
21 | B21 | 8550 PBM fluorescence, median of replicate spots
22 | B22 | 9680 PBM fluorescence, median of replicate spots
23 | B23 | 14100 PBM fluorescence, median of replicate spots
24 | B24 | 8390 PBM fluorescence, median of replicate spots
25 | B25 | 8320 PBM fluorescence, median of replicate spots
26 | B26 | 8760 PBM fluorescence, median of replicate spots
27 | B27 | 9260 PBM fluorescence, median of replicate spots
28 | B28 | 14300 PBM fluorescence, median of replicate spots
29 | B29 | 12400 PBM fluorescence, median of replicate spots
30 | B30 | 10600 PBM fluorescence, median of replicate spots
31 | B31 | 9520 PBM fluorescence, median of replicate spots
32 | B32 | 14600 PBM fluorescence, median of replicate spots

From PMC10681739, “High-throughput data and modeling reveal insights into the mechanisms of cooperative DNA-binding by transcription factor proteins”
